Earlier results as cited in patent US9506909B2, “Homoarginine as a biomarker for the risk of mortality” (Synlab Medizinisches Versorgungszentrum Heidelberg GmbH, priority 2010, dated 2016).

B1: NTproBNP: N-terminal pro peptide of proBNP, 76 amino acids, inactive counterpart of BNP (protein, UniProt P16860 27-102, looked up)
NT-proBNP: HPLGSPGSASDLETSGLQEQRNHLQGKLSELQVEQTSLEPLQESPRPTGVWKSREVATEGIRGHRKMVLYTLRAPR
modifications: NT-proBNP

Assays:
[1] = storage for 48 hours at room temperature or at 40 Celsius

Molecule	in-vivo half-life (in vivo) [h]	concentration loss on storage [1]	in-vivo half-life, longer than that of BNP (printed as the difference to the half-life of BNP) [h]
BNP: active natriuretic hormone, 32 amino acids, cleaved from proBNP	0.333	at least 20%	
B1			2
